From patent US12534748B2, “Engineered beta-subunit of tryptophan synthase for production of non-canonical amino acids” (California Institute of Technology, priority 2015, dated 2026)

Key:
[1] = substrate: c1ccc2[nH]ccc2c1; experiment: Tryptophan formation from L-serine and indole, kinetics of EcTrpB double mutant; type: biochemical, Escherichia coli; conditions: other: 37° C., pH 8.0
Protocol: (§1) Kinetics and UV-Vis Spectroscopy. Data were collected between 550 and 250 nm on a UV1800 Shimadzu spectrophotometer (Shimadzu) using 0.25-20 μM of enzyme in 200 mM potassium phosphate (pH 8.0) in a quartz cuvette. […] PfTrpB activity (kcat) was measured by monitoring tryptophan formation at 290 nm using Δe290=1.89 mM^−1·cm^−1.
(§2) Cloning, expression, and purification of the different orthologs. The genes encoding AfTrpB (UNIPROT ID O28672), TmTrpB (UNIPROT ID P50909) and EcTrpB (UNIPROT ID P0A879) were obtained from IDT and cloned into pET22(b)+ using Gibson Assembly. Protein expression was carried out in E. coli BL21 E. cloni Express cells (Lucigen) by inoculating 10-mL Terrific Broth (with 100 μg/mL ampicillin (TBamp)) with a single colony and incubated over night at 37° C. and 250 rpm. These overnight cultures were used to scale up to 500-mL TBamp expression cultures, which were grown by shaking at 250 rpm and 37° C. for ˜3 h or until an OD600 of 0.8 was reached. Then, after chilling the cultures on ice for 20 min, induction was conducted by the addition of IPTG to a final concentration of 1 mM. Induced cultures were allowed to grow at 250 rpm and 20° C. for another 20 h. After centrifugation, pelleted cells were frozen and stored at −20° C. until further use. […]

[2] = substrate: c1ccc2[nH]ccc2c1; experiment: Tryptophan formation from L-serine and indole, kinetics of TmTrpS complex; type: biochemical, Thermotoga maritima; conditions: other: 75° C., pH 8.0
Protocol: (§3) Kinetics and UV-Vis Spectroscopy. Data were collected between 550 and 250 nm on a UV1800 Shimadzu spectrophotometer (Shimadzu) using 0.25-20 μM of enzyme in 200 mM potassium phosphate (pH 8.0) in a quartz cuvette. Samples were incubated at 75° C. for >3 min to ensure a stable temperature was reached. PfTrpB activity (kcat) was measured by monitoring tryptophan formation at 290 nm using Δe290=1.89 mM^−1·cm^−1.
as §2, with “mM.” for “mM. Induced cultures were allowed to grow at 250 rpm and 20° C. for another 20 h. After centrifugation, pelleted cells were frozen and stored at −20° C. until further use.”
TmTrpA gene was also obtained from IDT and cloned into pET22(b)+ using Gibson Assembly, but without including the C-terminal His-tag. […] Protein concentrations were determined via the Bradford assay (Bio-Rad).

[3] = substrate: c1ccc2[nH]ccc2c1; experiment: Tryptophan formation from L-serine and indole, kinetics of TmTrpB double mutant; type: biochemical, Thermotoga maritima; conditions: other: 75° C., pH 8.0
Protocol: as §3, §2

[4] = substrate: c1ccc2[nH]ccc2c1; experiment: Tryptophan formation from L-serine and indole, kinetics of wild-type TmTrpB; type: biochemical, Thermotoga maritima; conditions: other: 75° C., pH 8.0
Protocol: The three TrpB homologs and their corresponding 0B2 variants were expressed and purified, and then their kinetic properties (kcat and KM of indole) were measured.

[5] = substrate: c1ccc2[nH]ccc2c1; experiment: Tryptophan formation from L-serine and indole, kinetics of TmTrpB^triple; type: biochemical, Thermotoga maritima; conditions: other: 75° C., pH 8.0
Protocol: as §3
as §2, with “reached.” for “reached. Then, after chilling the cultures on ice for 20 min, induction was conducted by the addition of IPTG to a final concentration of 1 mM. Induced cultures were allowed to grow at 250 rpm and 20° C. for another 20 h. After centrifugation, pelleted cells were frozen and stored at −20° C. until further use.”
The next homolog, TmTrpB, was examined. […] The variants without the T292S mutation lacked this probative absorbance peak, but the decrease at 428 nm and concomitant increase at 350 nm are consistent with a similar, though less pronounced activation.

[6] = substrate: c1ccc2[nH]ccc2c1; experiment: Tryptophan formation from L-serine and indole, kinetics of AfTrpB double mutant; type: biochemical, Archaeoglobus fulgidus; conditions: other: 60° C., pH 8.0
Protocol: as §1, §2

B1: Escherichia coli TrpB variant M149T N171D (Table 6 prints N171T), parent SEQ ID NO: 8, variant SEQ ID NO: 40 (Escherichia coli K-12; M149T/N171D) (protein)
chain: MTTLLNPYFGEFGGMYVPQILMPALRQLEEAFVSAQKDPEFQAQFNDLLKNYAGRPTALTKCQNITAGTNTTLYLKREDLLHGGAHKTNQVLGQALLAKRMGKTEIIAETGAGQHGVASALASALLGLKCRIYMGAKDVERQSPNVFRTRLMGAEVIPVHSGSATLKDACDEALRDWSGSYETAHYMLGTAAGPHPYPTIVREFQRMIGEETKAQILEREGRLPDAVIACVGGGSNAIGMFADFINETNVGLIGVEPGGHGIETGEHGAPLKHGRVGIYFGMKAPMMQTEDGQIEESYSISAGLDFPSVGPQHAYLNSTGRADYVSITDDEALEAFKTLCLHEGIIPALESSHALAHALKMMRENPDKEQLLVVNLSGRGDKDIFTVHDILKARGEILEHHHHHH
Km [1]: 18 µM

B2: Thermotoga maritima tryptophan synthase complex TmTrpS (TmTrpA + TmTrpB) (Thermotoga maritima MSB8) (protein)
chain: MKGYFGPYGGQYVPEILMPALEELEAAYEEIMKDESFWKEFNDLLRDYAGRPTPLYFARRLSEKYGARIYLKREDLLHTGAHKINNAIGQVLLAKKMGKTRIIAETGAGQHGVATATAAALFGMECVIYMGEEDTIRQKPNVERMKLLGAKVVPVKSGSRTLKDAINEALRDWITNLQTTYYVIGSVVGPHPYPIIVRNFQKVIGEETKKQILEKEGRLPDYIVACVGGGSNAAGIFYPFIDSGVKLIGVEAGGEGLETGKHAASLLKGKIGYLHGSKTFVLQDDWGQVQVTHSVSAGLDYSGVGPEHAYWRETGKVLYDAVTDEEALDAFIELSRLEGIIPALESSHALAYLKKINIKGKVVVVNLSGRGDKDLESVLNHPYVRERIRLEHHHHHH
Km [2]: 44 µM

B3: Thermotoga maritima TrpB variant M145T N167D (Table 6 prints N167T), SEQ ID NO: 36 (Thermotoga maritima MSB8; M145T/N167D) (protein)
chain: MKGYFGPYGGQYVPEILMPALEELEAAYEEIMKDESFWKEFNDLLRDYAGRPTPLYFARRLSEKYGARIYLKREDLLHTGAHKINNAIGQVLLAKKMGKTRIIAETGAGQHGVATATAAALFGMECVIYMGEEDTIRQKPNVERTKLLGAKVVPVKSGSRTLKDAIDEALRDWITNLQTTYYVIGSVVGPHPYPIIVRNFQKVIGEETKKQILEKEGRLPDYIVACVGGGSNAAGIFYPFIDSGVKLIGVEAGGEGLETGKHAASLLKGKIGYLHGSKTFVLQDDWGQVQVTHSVSAGLDYSGVGPEHAYWRETGKVLYDAVTDEEALDAFIELSRLEGIIPALESSHALAYLKKINIKGKVVVVNLSGRGDKDLESVLNHPYVRERIRLEHHHHHH
Km [3]: 32 µM

B4: Thermotoga maritima tryptophan synthase beta-subunit TmTrpB, wild type, SEQ ID NO: 6 (Thermotoga maritima MSB8) (protein)
chain: MKGYFGPYGGQYVPEILMPALEELEAAYEEIMKDESFWKEFNDLLRDYAGRPTPLYFARRLSEKYGARIYLKREDLLHTGAHKINNAIGQVLLAKKMGKTRIIAETGAGQHGVATATAAALFGMECVIYMGEEDTIRQKPNVERMKLLGAKVVPVKSGSRTLKDAINEALRDWITNLQTTYYVIGSVVGPHPYPIIVRNFQKVIGEETKKQILEKEGRLPDYIVACVGGGSNAAGIFYPFIDSGVKLIGVEAGGEGLETGKHAASLLKGKIGYLHGSKTFVLQDDWGQVQVTHSVSAGLDYSGVGPEHAYWRETGKVLYDAVTDEEALDAFIELSRLEGIIPALESSHALAYLKKINIKGKVVVVNLSGRGDKDLESVLNHPYVRERIRLEHHHHHH
Km [4]: 33 µM

B5: Thermotoga maritima TrpB variant TmTrpB^triple (P19G, I69V, T292S), SEQ ID NO: 34 (Thermotoga maritima MSB8; I69V/P19G/T292S) (protein)
chain: MKGYFGPYGGQYVPEILMGALEELEAAYEEIMKDESFWKEFNDLLRDYAGRPTPLYFARRLSEKYGARVYLKREDLLHTGAHKINNAIGQVLLAKKMGKTRIIAETGAGQHGVATATAAALFGMECVIYMGEEDTIRQKPNVERMKLLGAKVVPVKSGSRTLKDAINEALRDWITNLQTTYYVIGSVVGPHPYPIIVRNFQKVIGEETKKQILEKEGRLPDYIVACVGGGSNAAGIFYPFIDSGVKLIGVEAGGEGLETGKHAASLLKGKIGYLHGSKTFVLQDDWGQVQVSHSVSAGLDYSGVGPEHAYWRETGKVLYDAVTDEEALDAFIELSRLEGIIPALESSHALAYLKKINIKGKVVVVNLSGRGDKDLESVLNHPYVRERIRLEHHHHHH
Km [5]: 26 µM

B6: Archaeoglobus fulgidus TrpB variant M156T N178D (Table 6 prints N178T), SEQ ID NO: 24 (Archaeoglobus fulgidus DSM 4304; M156T/N178D) (protein)
chain: MRCWLENLSGGRKMKFGEFGGRFVPEVLIPPLEELEKAYDRFKDDEEFKARLEYYLKSYAGRPTPLYFAENLSRELGVKIYLKREDLLHGGAHKINNTIGQALLAKFMGKKRVIAETGAGQHGVATAMAAALLGLEAEIYMGAEDYERQKMNVFRTELLGAKVTAVESGSRTLKDAIDEALRDWVESFEHTHYLIGSVVGPHPFPTIVRDFQAVIGKEARRQIIEAEGGMPDAIIACVGGGSNAMGIFHPFLNDDVRLIGVEAGGEGIESGRHSASLTAGSKGVLHGMLSYFLQDEEGMMLDTHSVSAGLDYPGVGPEHAYLKETGRCEYVTVNDEEALRAFKTLSKLEGIIPALESAHAIAYAMKMAEEMQRDDVLVVNLSGRGDKDMDIVRRRLALEHHHHHH
Km [6]: 11 µM
